Experimental data: PMC9637641, “Regulation of factor V by the anticoagulant protease activated protein C: Influence of the B-domain and TFPIα” (The Journal of Biological Chemistry, 2022)

How the values were obtained:
[1] = target: T1, OG488-TFPIα-BR (fluorescently labeled with OG488 (Oregon Green 488 maleimide)); assay: cell-based or functional assay
[2] = target: T1, OG488-TFPIα-BR; assay: fluorescence polarisation; steady-state fluorescence anisotropy; FV species or APCi titrated (0–100 nM) into 25 nM OG488-TFPIα-BR and 50 μM PCPS vesicles in HBS/Ca2+/PEG, pH 7.4 (20 mM Hepes, 150 mM NaCl, 5 mM CaCl2, 0.1% PEG-8000), 25 °C; fit to a model for tight binding; conditions: both partners purified

T1 sequence (P10646 268-293): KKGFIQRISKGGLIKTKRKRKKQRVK

B1: FV-short (natural protein)
chain: AQLRQFYVAAQGISWSYRPEPTNSSLNLSVTSFKKIVYREYEPYFKKEKPQSTISGLLGPTLYAEVGDIIKVHFKNKADKPLSIHPQGIRYSKLSEGASYLDHTFPAEKMDDAVAPGREYTYEWSISEDSGPTHDDPPCLTHIYYSHENLIEDFNSGLIGPLLICKKGTLTEGGTQKTFDKQIVLLFAVFDESKSWSQSSSLMYTVNGYVNGTMPDITVCAHDHISWHLLGMSSGPELFSIHFNGQVLEQNHHKVSAITLVSATSTTANMTVGPEGKWIISSLTPKHLQAGMQAYIDIKNCPKKTRNLKKITREQRRHMKRWEYFIAAEEVIWDYAPVIPANMDKKYRSQHLDNFSNQIGKHYKKVMYTQYEDESFTKHTVNPNMKEDGILGPIIRAQVRDTLKIVFKNMASRPYSIYPHGVTFSPYEDEVNSSFTSGRNNTMIRAVQPGETYTYKWNILEFDEPTENDAQCLTRPYYSDVDIMRDIASGLIGLLLICKSRSLDRRGIQRAADIEQQAVFAVFDENKSWYLEDNINKFCENPDEVKRDDPKFYESNIMSTINGYVPESITTLGFCFDDTVQWHFCSVGTQNEILTIHFTGHSFIYGKRHEDTLTLFPMRGESVTVTMDNVGTWMLTSMNSSPRSKKLRLKFRDVKCIPDDDEDSYEIFEPPESTVMATRKMHDRLEPEDEESDADYDYQNRLAAALGIRSFRNSSLNQEEEEFNLTALALENGTEFVSSNTDIIVGSNYSSPSNIDLGQMPSPSSPTLNDTFLSKEFNPLVIVGLSKDGTDYIEIIPKEEVQSSEDDYAEIDYVPYDDPYKTDVRTNINSSRDPDNIAAWYLRSNNGNRRNYYIAAEEISWDYSEFVQRETDIEDSDDIPEDTTYKKVVFRKYLDSTFTKRDPRGEYEEHLGILGPIIRAEVDDVIQVRFKNLASRPYSLHAHGLSYEKSSEGKTYEDDSPEWFKEDNAVQPNSSYTYVWHATERSGPESPGSACRAWAYYSAVNPEKDIHSGLIGPLLICQKGILHKDSNMPMDMREFVLLFMTFDEKKSWYYEKKSRSSWRLTSSEMKKSHEFHAINGMIYSLPGLKMYEQEWVRLHLLNIGGSQDIHVVHFHGQTLLENGNKQHQLGVWPLLPGSFKTLEMKASKPGWWLLNTEVGENQRAGMQTPFLIMDRDCRMPMGLSTGIISDSQIKASEFLGYWEPRLARLNNGGSYNAWSVEKLAAEFASKPWIQVDMQKEVIITGIQTQGAKHYLKSCYTTEFYVAYSSNQINWQIFKGNSTRNVMYFNGNSDASTIKENQFDPPIVARYIRISPTRAYNRPTLRLELQGCEVNGCSTPLGMENGKIENKQITASSFKKSWWGDYWEPFRARLNAQGRVNAWQAKANNNKQWLEIDLLKIKKITAIITQGCKSLSSEMYVKSYTIHYSEQGVEWKPYRLKSSMVDKIFEGNTNTKGHVKNFFNPPIISRFIRVIPKTWNQSIALRLELFGCDIY
[1]
  Reduced fold change of inactivation by APC, +TFPIα-BR (kobs no BR divided by kobs +BR; % peak thrombin in TGA; 20 nM FV species, 250 nM BR fragment, 1 nM APC): 14.2 fold
[2]
  Kd: 1.56 nM
  stoichiometry N: 1.18 mol/mol
